According to the supplement of paper PMC5949888:

What follows are sequences tested on Saccharomyces cerevisiae PS128 hsf1 delta, HSF1(1-493) fusion (assay: growth estimate (transactivation domain function in HSF1 fusion, heat-shock survival) (a.u. (slope of normalised read count over time)); higher = stronger growth at 37°C, i.e. more transactivation activity). Details: library: design library.
Method in brief: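 Designed transactivation-domain oligos were fused to truncated yeast HSF1 (amino acids 1–493) and expressed in an hsf1-deleted yeast strain. Cells were replica-plated onto –trp 5-FOA plates and incubated at 30°C or 37°C for 0, 2, 4, 6 and 8 days. Inserts were PCR-amplified and Illumina MiSeq-sequenced as six barcoded replicates from one experiment. Growth estimate is the slope of a robust linear fit over time of read counts normalised to sample totals and starting count.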

Compared with DKLSWIIELLEKDG, EFNDLLDLDFALSN is higher in growth estimate: under -0.25 for the first, 3.84 for the second.

Going from LFDYDFLFGNGFA to KFPDTQDDFLKWWRSEEAQ, the growth estimate falls from 1.45 to -0.0955.

First: EFNDLLPLDFILSN
Second: DGDESWDYIFETTE
The growth estimate of the first is lower: under -0.25 for the first, -0.219 for the second.

Going from EDKDEFSLWDSML to TMDDGYNYLFDD, the growth estimate falls from -0.0707 to under -0.25.

Going from AMDDVYNYLFDD to AFDLDMLGDFDLDMLG, the growth estimate falls from 2.28 to 1.88.

First: EFNDLLKLDFILSN
Second: LFDYDFLFKNDFA
The growth estimate of the first is lower: -0.0935 for the first, 2.06 for the second.

First: DLDKSWDYIFETTE
Second: QQKGEIAQLWDFN
The growth estimate of the first is higher: -0.196 for the first, under -0.25 for the second.

Compared with EDDDEFSLWRSML, PFPDTQDDFLKWWRSEEAQ is lower in growth estimate: -0.116 for the first, -0.149 for the second.

Compared with VADDIWEELLSEPL, EDLYSILWSDVK is lower in growth estimate: 5.18 for the first, 0.0539 for the second.

Going from DFDLDMLPDFDLDMLG to MLSSHGFSVDKSALLDLFSP, the growth estimate falls from 0.485 to -0.249.

First: MLSSHGFSVDTSALPDLFSP
Second: VAPDIWEELLSEDL
The growth estimate of the first is lower: -0.23 for the first, 3.05 for the second.

Going from EDPYSILWSDVY to PFPDTQDGFLKWWRSEEAQ, the growth estimate falls from 0.731 to under -0.25.

Compared with EFNPLLDLDFILSN, DELSWIIELLEKDP is higher in growth estimate: under -0.25 for the first, 3.41 for the second.

TMDDVYNYLPDD and QQNGEIAQAWDFN cannot be ordered by growth estimate: under -0.25 for the first, under -0.25 for the second.

Compared with EDLYSILWSDKY, DGLSWIIELLEKDG is lower in growth estimate: -0.125 for the first, -0.173 for the second.

First: PFPDTQDDFLKWWRSEEAP
Second: PFPDTQDRFLKWWRSEEAQ
The growth estimate of the first is higher: 0.0281 for the first, under -0.25 for the second.

First: VADDAWEELLSEDL
Second: VADPIWEELLSEDL
The growth estimate of the first is lower: -0.24 for the first, 0.903 for the second.

Compared with RFDYDFLFGNDFA, DFDLDMLGDFKLDMLG is lower in growth estimate: 2.62 for the first, 0.503 for the second.

Compared with DFDLPMLGDFDLDMLG, PEFPGIALQELQELQALLQQ is lower in growth estimate: 5.28 for the first, -0.223 for the second.

Going from VADDIWEELLSEDP to DLDESWDYIFATTE, the growth estimate rises from 0.229 to 1.5.

Going from DELSWIIELLEKDK to DFDLDMLADFDLDMLG, the growth estimate falls from 0.564 to 0.343.

Going from EFNDLLDLDFILGN to QQNGEIAQLWDFK, the growth estimate falls from 4.09 to under -0.25.

Compared with MLSSKGFSVDTSALLDLFSP, EDDDEFSLADSML is lower in growth estimate: -0.115 for the first, -0.236 for the second.

Going from PFPDTQDDFLKWWRSEPAQ to PEFPGIELQELQELQAPLQQ, the growth estimate falls from -0.225 to under -0.25.

First: VADKIWEELLSEDL
Second: PFGDTQDDFLKWWRSEEAQ
The growth estimate of the first is lower: -0.0109 for the first, 0.304 for the second.

Going from TMDDVYNYLFPD to EDDDAFSLWDSML, the growth estimate falls from 1.69 to 0.237.

First: RADDIWEELLSEDL
Second: PAFPGIELQELQELQALLQQ
The growth estimate of the first is higher: 0.445 for the first, -0.0264 for the second.

Compared with MLSSHGFPVDTSALLDLFSP, QQNGGIAQLWDFN is lower in growth estimate: -0.119 for the first, -0.189 for the second.

Going from DELRWIIELLEKDG to MLKSHGFSVDTSALLDLFSP, the growth estimate falls from 0.0232 to -0.17.

Going from DLDESWDYIFETTR to QQNAEIAQLWDFN, the growth estimate falls from 1.15 to under -0.25.

Going from QQNGEIAQLADFN to TMDDVYAYLFDD, the growth estimate rises from -0.24 to 4.4.

Compared with VGDDIWEELLSEDL, EDDGEFSLWDSML is lower in growth estimate: 1.59 for the first, 0.47 for the second.

Going from PFPDPQDDFLKWWRSEEAQ to EDDDEFRLWDSML, the growth estimate falls from -0.0255 to -0.0562.

First: PEFPGIELQELQELQALPQQ
Second: EDDDEFPLWDSML
The growth estimate of the first is lower: under -0.25 for the first, 0.199 for the second.

Going from EDLYSILWSDVP to PFPGTQDDFLKWWRSEEAQ, the growth estimate falls from 0.204 to under -0.25.

First: PFPPTQDDFLKWWRSEEAQ
Second: DFDLDMLKDFDLDMLG
The growth estimate of the first is lower: -0.215 for the first, 2.58 for the second.

Going from EDDDEFSLWDPML to EDDDEFSLWDGML, the growth estimate falls from 3.13 to 0.875.

First: MLSKHGFSVDTSALLDLFSP
Second: DLDESWDYIAETTE
The growth estimate of the first is lower: -0.229 for the first, -0.174 for the second.

Going from DLDESWDYIFPTTE to DPDESWDYIFETTE, the growth estimate rises from 0.0438 to 0.0829.

Compared with EDPDEFSLWDSML, DLDESWAYIFETTE is lower in growth estimate: 1.36 for the first, 0.283 for the second.

Going from PLSSHGFSVDTSALLDLFSP to LGDYDFLFGNDFA, the growth estimate rises from 0.0027 to 2.6.

Going from VRDDIWEELLSEDL to EFNDKLDLDFILSN, the growth estimate falls from 0.609 to under -0.25.

Compared with LFDYDFLKGNDFA, PFPDTQDDFLKKWRSEEAQ is lower in growth estimate: -0.139 for the first, -0.167 for the second.

Going from DKDESWDYIFETTE to LKDYDFLFGNDFA, the growth estimate rises from -0.235 to -0.0701.

Going from DLGESWDYIFETTE to TADDVYNYLFDD, the growth estimate falls from 0.355 to 0.0678.

First: QQNGEIAQLWDFP
Second: GFNDLLDLDFILSN
The growth estimate of the first is lower: -0.243 for the first, -0.0099 for the second.

Compared with VADDIWEELLSERL, LFDYAFLFGNDFA is lower in growth estimate: 5.09 for the first, 2.15 for the second.

First: TMDDRYNYLFDD
Second: ERDDEFSLWDSML
The growth estimate of the first is lower: -0.144 for the first, 0.267 for the second.

Going from MLSSHGFSVDGSALLDLFSP to TMKDVYNYLFDD, the growth estimate falls from -0.0946 to under -0.25.

Going from DFPLDMLGDFDLDMLG to MLSSHGFSVDTSALLDLFSA, the growth estimate falls from 3.12 to -0.127.

First: PEFPGIELQELQELQALLAQ
Second: EFNDLLDLAFILSN
The growth estimate of the first is lower: under -0.25 for the first, -0.217 for the second.

First: RLDESWDYIFETTE
Second: DELSWIIRLLEKDG
The growth estimate of the first is higher: -0.191 for the first, under -0.25 for the second.

QQRGEIAQLWDFN and DELSWIIELLRKDG cannot be ordered by growth estimate: under -0.25 for the first, under -0.25 for the second.

Compared with TMDDVPNYLFDD, VADDIWEELLSEDG is higher in growth estimate: -0.232 for the first, 0.0334 for the second.

Compared with PEFPGIELQELQELQALKQQ, QQNGEIKQLWDFN is lower in growth estimate: -0.232 for the first, under -0.25 for the second.

Compared with LFDYDFLFGNDRA, VADDGWEELLSEDL is lower in growth estimate: 0.389 for the first, under -0.259 for the second.

EDLRSILWSDVY and TMDDVKNYLFDD cannot be ordered by growth estimate: under -0.25 for the first, under -0.25 for the second.

First: MASSHGFSVDTSALLDLFSP
Second: EDLYSIAWSDVY
The growth estimate of the first is higher: 0.0397 for the first, under -0.25 for the second.

Going from DFDLDMLGDADLDMLG to DLDASWDYIFETTE, the growth estimate falls from 5.13 to 0.507.

Compared with EDDDEPSLWDSML, MLSSHGFSVATSALLDLFSP is lower in growth estimate: 0.0815 for the first, -0.234 for the second.

Compared with DFDPDMLGDFDLDMLG, PFPDTQDDFLKWWRSEGAQ is lower in growth estimate: 7.23 for the first, -0.0427 for the second.

Going from DELGWIIELLEKDG to DFDLDMLGDFDKDMLG, the growth estimate rises from -0.244 to 0.54.

Compared with RFDLDMLGDFDLDMLG, QQNGEIAQLWDGN is lower in growth estimate: 0.634 for the first, -0.163 for the second.

Compared with VADDIWEEKLSEDL, PEFPGIRLQELQELQALLQQ is higher in growth estimate: under -0.25 for the first, -0.249 for the second.

First: DFKLDMLGDFDLDMLG
Second: QQNREIAQLWDFN
The growth estimate of the first is higher: 5.13 for the first, under -0.25 for the second.

First: DLDESWPYIFETTE
Second: EDDREFSLWDSML
The growth estimate of the first is higher: -0.161 for the first, -0.175 for the second.

Going from DALSWIIELLEKDG to DFDGDMLGDFDLDMLG, the growth estimate rises from under -0.25 to 1.92.

Compared with TMDDVYNYLGDD, EDLYSIGWSDVY is lower in growth estimate: -0.149 for the first, -0.212 for the second.

First: EDLYSILWADVY
Second: PEFPGIELQELQELRALLQQ
The growth estimate of the first is higher: -0.181 for the first, under -0.25 for the second.

Going from DLDESWGYIFETTE to QQNGEIAQLWDPN, the growth estimate falls from 0.0335 to -0.246.

First: LFDYDPLFGNDFA
Second: TMDDVYNGLFDD
The growth estimate of the first is higher: 0.326 for the first, under -0.25 for the second.

Going from PFPDTQDDFLKWARSEEAQ to TMDDVYNYLFDP, the growth estimate rises from 0.0578 to 1.58.

First: DLDESWDYIFGTTE
Second: EFNDLLDLDFIRSN
The growth estimate of the first is higher: 0.717 for the first, -0.0675 for the second.

First: PEFPGIEAQELQELQALLQQ
Second: PPFPGIELQELQELQALLQQ
The growth estimate of the first is higher: -0.167 for the first, -0.187 for the second.

Compared with PEFPGIELQELQELQALRQQ, MLSSHGFSVDTSAALDLFSP is higher in growth estimate: -0.168 for the first, -0.124 for the second.

First: GQNGEIAQLWDFN
Second: MLSSHGFSVDTSALLDLASP
The growth estimate of the first is lower: under -0.25 for the first, -0.145 for the second.
